Test results taken from article PMC5764952 (2018).

B1: Untagged murine saposin A (SapA) [mouse] / His6-tagged murine β-galactocerebrosidase (GALC) [modified: glycosylated; glycosylated] [mouse] (parent complex)
chain 1: MGKSLPCDICKTVVTEAGNLLKDNATQEEILHYLEKTCEWIHDSSLSASCKEVVDSYLPVILDMIKGEMSNPGEVCSALNLCQSLQE
chain 2: YVLDDSDGLGREFDGIGAVSGGGATSRLLVNYPEPYRSEILDYLFKPNFGASLHILKVEIGGDGQTTDGTEPSHMHYELDENYFRGYEWWLMKEAKKRNPDIILMGLPWSFPGWLGKGFSWPYVNLQLTAYYVVRWILGAKHYHDLDIDYIGIWNERPFDANYIKELRKMLDYQGLQRVRIIASDNLWEPISSSLLLDQELWKVVDVIGAHYPGTYTVWNAKMSGKKLWSSEDFSTINSNVGAGCWSRILNQNYINGNMTSTIAWNLVASYYEELPYGRSGLMTAQEPWSGHYVVASPIWVSAHTTQFTQPGWYYLKTVGHLEKGGSYVALTDGLGNLTIIIETMSHQHSMCIRPYLPYYNVSHQLATFTLKGSLREIQELQVWYTKLGTPQQRLHFKQLDTLWLLDGSGSFTLELEEDEIFTLTTLTTGRKGSYPPPPSSKPFPTNYKDDFNVEYPLFSEAPNFADQTGVFEYYMNNEDREHRFTLRQVLNQRPITWAADASSTISVIGDHHWTNMTVQCDVYIETPRSGGVFIAGRVNKGGILIRSATGVFFWIFANGSYRVTADLGGWITYASGHADVTAKRWYTLTLGIKGYFAFGMLNGTILWKNVRVKYPGHGWAAIGTHTFEFAQFDNFRVEAAR

Variants of: B1
Experiment: pull-down (immobilised GALC, Coomassie SDS-PAGE, quantified); in the presence of Tween-20; n = 3; read off a plot

Q: How did the ratio to parent turn out when chain 1 MGKSLPCDICKTVVTEAGNLLKDNATQEEILHYLEKTCEWIHDSSLSASCKEVVDSYLPVILDMIKGKMSNPGEVCSALNLCQSLQE [chain 1 E68K] was run?
A: ~1.1

Q: How did the ratio to parent turn out when chain 1 MGKSLPCDICKTVVTEAGNLLEDNATQEEILHYLEKTCEWIHDSSLSASCKEVVDSYLPVILDMIKGEMSNPGEVCSALNLCQSLQE [chain 1 K22E] was run?
A: ~0.05

Q: Which ratio to parent does the source give for chain 1 MGKSLPCDICKTVVTEAGNLLKDNATQEEILHYLEKTCEWIHDSSLSASCKEVVDSYLPVILKMIKGEMSNPGEVCSALNLCQSLQE [chain 1 D63K] here?
A: ~0.03

Q: For chain 1 MGKSLPCDICKTVVTEAGNLLKDNATKEEILHYLEKTCEWIHDSSLSASCKEVVDSYLPVILDMIKGEMSNPGEVCSALNLCQSLQE [chain 1 Q27K], which ratio to parent is on record?
A: ~0.08

Q: How did the ratio to parent turn out when chain 1 MGKSLPCDICKTVVTEAGNLLKDNATQEEILHYLEKTCEDIHDSSLSASCKEVVDSYLPVILDMIKGEMSNPGEVCSALNLCQSLQE [chain 1 W40D] was run?
A: ~0.8

Q: chain 1 MGKSLPCDICKTVVTEAGNLLKDNATQEEILHYLEKTCESIHDSSLSASCKEVVDSYLPVILDMIKGEMSNPGEVCSALNLCQSLQE [chain 1 W40S] was tested. Which ratio to parent did it give?
A: ~0.77

Q: With chain 1 MGKSLPCDICKTVVTEAGNLLKDNATQEEILHYLEKTCEFIHDSSLSASCKEVVDSYLPVILDMIKGEMSNPGEVCSALNLCQSLQE [chain 1 W40F] as the variant, how does the ratio to parent read?
A: ~0.81

Q: How did the ratio to parent turn out when chain 1 MGKSLPCDICKTVVTEAGNLLKDNATQEEILHYLEKTCEWIHDSSLSASCKEVVKSYLPVILDMIKGEMSNPGEVCSALNLCQSLQE [chain 1 D55K] was run?
A: ~0.12

Q: Which ratio to parent does the source give for chain 1 MGKSLPCDICKTVVTEAGNLLKDNATQEEILHYLRKTCEWIHDSSLSASCKEVVDSYLPVILDMIKGEMSNPGEVCSALNLCQSLQE [chain 1 E35R] here?
A: ~0.21

Q: How did the ratio to parent turn out when chain 1 MGKSLPCDICKTVVTEAGNLLKDNATQEEILHYLEKTCEWIHDSSLSASCKEVVDSYLPVILDMIEGEMSNPGEVCSALNLCQSLQE [chain 1 K66E] was run?
A: ~0.77

Q: chain 1 MGKSLPCDICKTVVTEAGNLLKDNATQKEILHYLEKTCEWIHDSSLSASCKEVVDSYLPVILDMIKGEMSNPGEVCSALNLCQSLQE [chain 1 E28K] was tested. Which ratio to parent did it give?
A: ~0.06

Q: For chain 1 MGKSLPCDICKTVVTEAGNLLKDNATQEEINHYLEKTCEWIHDSSLSASCKEVVDSYLPVILDMIKGEMSNPGEVCSALNLCQSLQE [chain 1 L31N], which ratio to parent is on record?
A: ~0.13

Q: For chain 1 MGKSLPCDICKTVVTEAGNLLKDNATQEEIRHYLEKTCEWIHDSSLSASCKEVVDSYLPVILDMIKGEMSNPGEVCSALNLCQSLQE [chain 1 L31R], which ratio to parent is on record?
A: ~0.04

Q: How did the ratio to parent turn out when chain 1 MGKSLPCDICKTVVTEAGNLLKDNATQEEILHYLEKTCEWIHDSSLSASCKKVVDSYLPVILDMIKGEMSNPGEVCSALNLCQSLQE [chain 1 E52K] was run?
A: ~0.06
